Data: patent publication US20150089682A1, “ALS Inhibitor Herbicide Tolerant B. Napus Mutants” (priority 2012, published 2015)
Changes are numbered by the printed parent chain. In names and notes the source's numbering stands.

B1: W574L: Arabidopsis thaliana W574L-mutant ALS expressed in Escherichia coli, crude protein extract (protein, UniProt P17597 56-670, looked up, variant W574L)
Acetolactate synthase, …: SSSPSSISAVLNTTTNVTTTPSPTKPTKPETFISRFAPDQPRKGADILVEALERQGVETVFAYPGGASMEIHQALTRSSSIRNVLPRHEQGGVFAAEGYARSSGKPGICIATSGPGATNLVSGLADALLDSVPLVAITGQVPRRMIGTDAFQETPIVEVTRSITKHNYLVMDVEDIPRIIEEAFFLATSGRPGPVLVDVPKDIQQQLAIPNWEQAMRLPGYMSRMPKPPEDSHLEQIVRLISESKKPVLYVGGGCLNSSDELGRFVELTGIPVASTLMGLGSYPCDDELSLHMLGMHGTVYANYAVEHSDLLLAFGVRFDDRVTGKLEAFASRAKIVHIDIDSAEIGKNKTPHVSVCGDVKLALQGMNKVLENRAEELKLDFGVWRNELNVQKQKFPLSFKTFGEAIPPQYAIKVLDELTDGKAIISTGVGQHQMWAAQFYNYKKPRQWLSSGGLGAMGFGLPAAIGASVANPDAIVVDIDGDGSFIMNVQELATIRVENLPVKVLLLNNQHLGMVMQLEDRFYKANRAHTFLGDPAQEDEIFPNMLLFAAACGIPAARVTKKADLREAIQTMLDTPGPYLLDVICPHQEHVLPMIPSGGTFNDVITEGDGRIKY
B2: S653N: Arabidopsis thaliana S653N-mutant ALS expressed in Escherichia coli, crude protein extract (protein, UniProt P17597 56-670, looked up, variant S653N)
Acetolactate synthase, …: B1 Acetolactate synthase, … with L519W, S598N

Assay: Kinetic parameters of enzymatic activity of AHAS mutants
Assay type: biochemical, Arabidopsis thaliana
Settings: pyruvate varied 0-120 mM
Method: The coding sequences of the Arabidopsis thaliana wild-type and P197S-, W574L-, and S653N-mutant ALS genes were cloned into Novagen pET-32a(+) vectors and the vectors transformed into Escherichia coli AD494 according to the instructions of the manufacturer. Bacteria were grown at 37° C. in LB-medium containing 100 mg/1 carbenicillin and 25 mg/1 canamycin, induced with 1 mM isopropyl-β-D-thiogalactopyranoside at an OD600 of 0.6, cultivated for 16 hours at 18° C. and harvested by centrifugation. Bacterial pellets were resusupended in 100 mM sodium phosphate buffer pH 7.0 containing 0.1 mM thiamine-pyrophosphate, 1 mM MgCl2, and 1 μM FAD at a concentration of 1 gram wet weight per 25 ml of buffer and disrupted by sonification. The crude protein extract obtained after centrifugation was used for ALS activity measurements.
ALS assays were carried out in 96-well microtiter plates using a modification of the procedure described by Ray (1984), Plant Physiol 75:827-831. The reation mixture contained 20 mM potassium phosphate buffer pH 7.0, 20 mM sodium pyruvate, 0.45 mM thiamine-pyrophosphate, 0.45 mM MgCl2, 9 μM FAD, ALS enzyme and various concentrations of ALS inhibitors in a final volume of 90 μl. Assays were initiated by adding enzyme and terminated after 75 min incubation at 30° C. by the addition to 40 μl 0.5 M H2SO4. […] The pI50 values measured for the different mutant AHAS proteins and calculated for the mixtures of two different AHAS enzymes are shown in Table 3. […] Reaction velocities were tiffed to the Michalis-Menten equation with the XLFit curve fitting program.

Molecule	Km	Vmax
B1	6.9 ± 0.2 mM	54.4 ± 2.8 ΔE/min mg
B2	5.8 ± 0.4 mM	32.0 ± 1.4 ΔE/min mg
